# Data from patent publication US20070275898A1 (CENTRE NATIONAL DE LA RECHERCHE SCIENTIFIQUE, published 2007).
# Biological target: β subunit of DNA polymerase III of Escherichia coli (Escherichia coli, UniProt P0A988 1-366)
# Test: cell-based or functional assay
# Chain of β subunit of DNA polymerase III of Escherichia coli (P0A988 whole entry): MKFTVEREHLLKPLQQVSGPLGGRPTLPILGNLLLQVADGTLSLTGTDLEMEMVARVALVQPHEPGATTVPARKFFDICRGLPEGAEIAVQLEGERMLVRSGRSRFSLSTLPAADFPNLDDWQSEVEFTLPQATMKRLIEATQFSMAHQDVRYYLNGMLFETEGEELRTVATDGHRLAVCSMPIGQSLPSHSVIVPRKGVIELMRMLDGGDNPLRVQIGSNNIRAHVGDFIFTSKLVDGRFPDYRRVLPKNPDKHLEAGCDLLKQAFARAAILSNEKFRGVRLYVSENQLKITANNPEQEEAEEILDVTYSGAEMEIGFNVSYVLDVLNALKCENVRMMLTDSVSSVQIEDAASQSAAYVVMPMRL
binder,measurement,value
"VTLLDPQMERQLVLGL [P16 peptide, the 16 last residues of Pol IV DNA polymerase of E. coli]",β-dependent Pol IV activity (ratio of β-dependent to β-independent polymerase activities),~30 fold decrease
